Results on 16 molecules are retold here after US20260070987A1.

The labels stand for the following.
B1: equine IgG1 T286V (antibody, part only; not given: Variable domains, not shown: another chain or arm of the molecule)
constant: ASTTAPKVFALAPGCGTTSDSTVALGCLVSGYFPEPVKVSWNSGSLTSGVHTFPSVLQSSGFYSLSSMVTVPASTWTSETYICNVVHAASNFKVDKRIEPIPDNHQKVCDMSKCPKCPAPELLGGPSVFIFPPNPKDTLMITRTPEVTCVVVDVSQENPDVKFNWYMDGVEVRVATTRPKEEQFNSTYRVVSVLRIQHQDWLSGKEFKCKVNNQALPQPIERTITKTKGRSQEPQVYVLAPHPDELSKSKVSVTCLVKDFYPPEINIEWQSNGQPELETKYSTTQAQQDSDGSYFLYSKLSVDRNRWQQGTTFTCGVMHEALHNHYTQKNVSKNPGK
B2: equine IgG1 T286W (antibody, part only; not given: Variable domains, not shown: another chain or arm of the molecule)
constant: ASTTAPKVFALAPGCGTTSDSTVALGCLVSGYFPEPVKVSWNSGSLTSGVHTFPSVLQSSGFYSLSSMVTVPASTWTSETYICNVVHAASNFKVDKRIEPIPDNHQKVCDMSKCPKCPAPELLGGPSVFIFPPNPKDTLMITRTPEVTCVVVDVSQENPDVKFNWYMDGVEVRWATTRPKEEQFNSTYRVVSVLRIQHQDWLSGKEFKCKVNNQALPQPIERTITKTKGRSQEPQVYVLAPHPDELSKSKVSVTCLVKDFYPPEINIEWQSNGQPELETKYSTTQAQQDSDGSYFLYSKLSVDRNRWQQGTTFTCGVMHEALHNHYTQKNVSKNPGK
B3: equine IgG4 D312W (antibody, part only; not given: Variable domains, not shown: another chain or arm of the molecule)
constant: ASTTAPKVFPLASHSAATSGSTVALGCLVSSYFPEPVTVSWNSGALTSGVHTFPSVLQSSGLYSLSSMVTVPASSLKSQTYICNVAHPASSTKVDKKIVIKECNGGCPAECLQVGPSVFIFPPKPKDVLMISRTPTVTCVVVDVGHDFPDVQFNWYVDGVETHTATTEPKQEQFNSTYRVVSVLPIQHKWWLSGKEFKCKVNNKALPAPVERTISKPTGQPREPQVYVLAPHRDELSKNKVSVTCLVKDFYPTDIDIEWKSNGQPEPETKYSTTPAQLDSDGSYFLYSKLTVETNRWQQGTTFTCAVMHEALHNHYTEKSVSKSPGK
B4: equine IgG4 Y436C (antibody, part only; not given: Variable domains, not shown: another chain or arm of the molecule)
constant: ASTTAPKVFPLASHSAATSGSTVALGCLVSSYFPEPVTVSWNSGALTSGVHTFPSVLQSSGLYSLSSMVTVPASSLKSQTYICNVAHPASSTKVDKKIVIKECNGGCPAECLQVGPSVFIFPPKPKDVLMISRTPTVTCVVVDVGHDFPDVQFNWYVDGVETHTATTEPKQEQFNSTYRVVSVLPIQHKDWLSGKEFKCKVNNKALPAPVERTISKPTGQPREPQVYVLAPHRDELSKNKVSVTCLVKDFYPTDIDIEWKSNGQPEPETKYSTTPAQLDSDGSYFLYSKLTVETNRWQQGTTFTCAVMHEALHNHCTEKSVSKSPGK
B5: equine IgG4 Y436F (antibody, part only; not given: variable domains, not shown: another chain or arm of the molecule)
constant: ASTTAPKVFPLASHSAATSGSTVALGCLVSSYFPEPVTVSWNSGALTSGVHTFPSVLQSSGLYSLSSMVTVPASSLKSQTYICNVAHPASSTKVDKKIVIKECNGGCPAECLQVGPSVFIFPPKPKDVLMISRTPTVTCVVVDVGHDFPDVQFNWYVDGVETHTATTEPKQEQFNSTYRVVSVLPIQHKDWLSGKEFKCKVNNKALPAPVERTISKPTGQPREPQVYVLAPHRDELSKNKVSVTCLVKDFYPTDIDIEWKSNGQPEPETKYSTTPAQLDSDGSYFLYSKLTVETNRWQQGTTFTCAVMHEALHNHFTEKSVSKSPGK
B6: equine IgG4 Y436D (antibody, part only; not given: variable domains, not shown: another chain or arm of the molecule)
constant: ASTTAPKVFPLASHSAATSGSTVALGCLVSSYFPEPVTVSWNSGALTSGVHTFPSVLQSSGLYSLSSMVTVPASSLKSQTYICNVAHPASSTKVDKKIVIKECNGGCPAECLQVGPSVFIFPPKPKDVLMISRTPTVTCVVVDVGHDFPDVQFNWYVDGVETHTATTEPKQEQFNSTYRVVSVLPIQHKDWLSGKEFKCKVNNKALPAPVERTISKPTGQPREPQVYVLAPHRDELSKNKVSVTCLVKDFYPTDIDIEWKSNGQPEPETKYSTTPAQLDSDGSYFLYSKLTVETNRWQQGTTFTCAVMHEALHNHDTEKSVSKSPGK
B7: equine IgG4 D312Y (antibody, part only; not given: variable domains, not shown: another chain or arm of the molecule)
constant: ASTTAPKVFPLASHSAATSGSTVALGCLVSSYFPEPVTVSWNSGALTSGVHTFPSVLQSSGLYSLSSMVTVPASSLKSQTYICNVAHPASSTKVDKKIVIKECNGGCPAECLQVGPSVFIFPPKPKDVLMISRTPTVTCVVVDVGHDFPDVQFNWYVDGVETHTATTEPKQEQFNSTYRVVSVLPIQHKYWLSGKEFKCKVNNKALPAPVERTISKPTGQPREPQVYVLAPHRDELSKNKVSVTCLVKDFYPTDIDIEWKSNGQPEPETKYSTTPAQLDSDGSYFLYSKLTVETNRWQQGTTFTCAVMHEALHNHYTEKSVSKSPGK
B8: equine IgG4 Y436E (antibody, part only; not given: variable domains, not shown: another chain or arm of the molecule)
constant: ASTTAPKVFPLASHSAATSGSTVALGCLVSSYFPEPVTVSWNSGALTSGVHTFPSVLQSSGLYSLSSMVTVPASSLKSQTYICNVAHPASSTKVDKKIVIKECNGGCPAECLQVGPSVFIFPPKPKDVLMISRTPTVTCVVVDVGHDFPDVQFNWYVDGVETHTATTEPKQEQFNSTYRVVSVLPIQHKDWLSGKEFKCKVNNKALPAPVERTISKPTGQPREPQVYVLAPHRDELSKNKVSVTCLVKDFYPTDIDIEWKSNGQPEPETKYSTTPAQLDSDGSYFLYSKLTVETNRWQQGTTFTCAVMHEALHNHETEKSVSKSPGK
B9: equine IgG4 Y436H (antibody, part only; not given: variable domains, not shown: another chain or arm of the molecule)
constant: ASTTAPKVFPLASHSAATSGSTVALGCLVSSYFPEPVTVSWNSGALTSGVHTFPSVLQSSGLYSLSSMVTVPASSLKSQTYICNVAHPASSTKVDKKIVIKECNGGCPAECLQVGPSVFIFPPKPKDVLMISRTPTVTCVVVDVGHDFPDVQFNWYVDGVETHTATTEPKQEQFNSTYRVVSVLPIQHKDWLSGKEFKCKVNNKALPAPVERTISKPTGQPREPQVYVLAPHRDELSKNKVSVTCLVKDFYPTDIDIEWKSNGQPEPETKYSTTPAQLDSDGSYFLYSKLTVETNRWQQGTTFTCAVMHEALHNHHTEKSVSKSPGK
B10: equine IgG4 Y436K (antibody, part only; not given: variable domains, not shown: another chain or arm of the molecule)
constant: ASTTAPKVFPLASHSAATSGSTVALGCLVSSYFPEPVTVSWNSGALTSGVHTFPSVLQSSGLYSLSSMVTVPASSLKSQTYICNVAHPASSTKVDKKIVIKECNGGCPAECLQVGPSVFIFPPKPKDVLMISRTPTVTCVVVDVGHDFPDVQFNWYVDGVETHTATTEPKQEQFNSTYRVVSVLPIQHKDWLSGKEFKCKVNNKALPAPVERTISKPTGQPREPQVYVLAPHRDELSKNKVSVTCLVKDFYPTDIDIEWKSNGQPEPETKYSTTPAQLDSDGSYFLYSKLTVETNRWQQGTTFTCAVMHEALHNHKTEKSVSKSPGK
B11: equine IgG4 Y436N (antibody, part only; not given: variable domains, not shown: another chain or arm of the molecule)
constant: ASTTAPKVFPLASHSAATSGSTVALGCLVSSYFPEPVTVSWNSGALTSGVHTFPSVLQSSGLYSLSSMVTVPASSLKSQTYICNVAHPASSTKVDKKIVIKECNGGCPAECLQVGPSVFIFPPKPKDVLMISRTPTVTCVVVDVGHDFPDVQFNWYVDGVETHTATTEPKQEQFNSTYRVVSVLPIQHKDWLSGKEFKCKVNNKALPAPVERTISKPTGQPREPQVYVLAPHRDELSKNKVSVTCLVKDFYPTDIDIEWKSNGQPEPETKYSTTPAQLDSDGSYFLYSKLTVETNRWQQGTTFTCAVMHEALHNHNTEKSVSKSPGK
B12: equine IgG4 Y436G (antibody, part only; not given: variable domains, not shown: another chain or arm of the molecule)
constant: ASTTAPKVFPLASHSAATSGSTVALGCLVSSYFPEPVTVSWNSGALTSGVHTFPSVLQSSGLYSLSSMVTVPASSLKSQTYICNVAHPASSTKVDKKIVIKECNGGCPAECLQVGPSVFIFPPKPKDVLMISRTPTVTCVVVDVGHDFPDVQFNWYVDGVETHTATTEPKQEQFNSTYRVVSVLPIQHKDWLSGKEFKCKVNNKALPAPVERTISKPTGQPREPQVYVLAPHRDELSKNKVSVTCLVKDFYPTDIDIEWKSNGQPEPETKYSTTPAQLDSDGSYFLYSKLTVETNRWQQGTTFTCAVMHEALHNHGTEKSVSKSPGK
B13: equine IgG4 Y436L (antibody, part only; not given: variable domains, not shown: another chain or arm of the molecule)
constant: ASTTAPKVFPLASHSAATSGSTVALGCLVSSYFPEPVTVSWNSGALTSGVHTFPSVLQSSGLYSLSSMVTVPASSLKSQTYICNVAHPASSTKVDKKIVIKECNGGCPAECLQVGPSVFIFPPKPKDVLMISRTPTVTCVVVDVGHDFPDVQFNWYVDGVETHTATTEPKQEQFNSTYRVVSVLPIQHKDWLSGKEFKCKVNNKALPAPVERTISKPTGQPREPQVYVLAPHRDELSKNKVSVTCLVKDFYPTDIDIEWKSNGQPEPETKYSTTPAQLDSDGSYFLYSKLTVETNRWQQGTTFTCAVMHEALHNHLTEKSVSKSPGK
B14: equine IgG4 Y436I (antibody, part only; not given: variable domains, not shown: another chain or arm of the molecule)
constant: ASTTAPKVFPLASHSAATSGSTVALGCLVSSYFPEPVTVSWNSGALTSGVHTFPSVLQSSGLYSLSSMVTVPASSLKSQTYICNVAHPASSTKVDKKIVIKECNGGCPAECLQVGPSVFIFPPKPKDVLMISRTPTVTCVVVDVGHDFPDVQFNWYVDGVETHTATTEPKQEQFNSTYRVVSVLPIQHKDWLSGKEFKCKVNNKALPAPVERTISKPTGQPREPQVYVLAPHRDELSKNKVSVTCLVKDFYPTDIDIEWKSNGQPEPETKYSTTPAQLDSDGSYFLYSKLTVETNRWQQGTTFTCAVMHEALHNHITEKSVSKSPGK
B15: equine IgG4 Y436M (antibody, part only; not given: variable domains, not shown: another chain or arm of the molecule)
constant: ASTTAPKVFPLASHSAATSGSTVALGCLVSSYFPEPVTVSWNSGALTSGVHTFPSVLQSSGLYSLSSMVTVPASSLKSQTYICNVAHPASSTKVDKKIVIKECNGGCPAECLQVGPSVFIFPPKPKDVLMISRTPTVTCVVVDVGHDFPDVQFNWYVDGVETHTATTEPKQEQFNSTYRVVSVLPIQHKDWLSGKEFKCKVNNKALPAPVERTISKPTGQPREPQVYVLAPHRDELSKNKVSVTCLVKDFYPTDIDIEWKSNGQPEPETKYSTTPAQLDSDGSYFLYSKLTVETNRWQQGTTFTCAVMHEALHNHMTEKSVSKSPGK
B16: equine IgG4 Y436A (antibody, part only; not given: variable domains, not shown: another chain or arm of the molecule)
constant: ASTTAPKVFPLASHSAATSGSTVALGCLVSSYFPEPVTVSWNSGALTSGVHTFPSVLQSSGLYSLSSMVTVPASSLKSQTYICNVAHPASSTKVDKKIVIKECNGGCPAECLQVGPSVFIFPPKPKDVLMISRTPTVTCVVVDVGHDFPDVQFNWYVDGVETHTATTEPKQEQFNSTYRVVSVLPIQHKDWLSGKEFKCKVNNKALPAPVERTISKPTGQPREPQVYVLAPHRDELSKNKVSVTCLVKDFYPTDIDIEWKSNGQPEPETKYSTTPAQLDSDGSYFLYSKLTVETNRWQQGTTFTCAVMHEALHNHATEKSVSKSPGK

The assay addresses equine FcRn (large alpha subunit p51) / equine beta-2-microglobulin complex, biotinylated (equine) (UniProt P30441). In words: SPR (Biacore), pH 6.
Sequence of UniProt P30441 (P30441 21-118, one chain of several): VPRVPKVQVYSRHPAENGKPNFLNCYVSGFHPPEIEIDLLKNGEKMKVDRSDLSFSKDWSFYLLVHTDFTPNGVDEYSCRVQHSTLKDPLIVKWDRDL
The term Kd denotes the equilibrium constant for the complex coming apart. Read a high Kd as lower affinity. Molecule B1 registered a Kd of 16.2 nM.
The molecule B2 displayed a Kd of 18.4 nM.
B3 showed an equilibrium dissociation constant (Kd) of 12.1 nM.
In turn, B4 registered a Kd of 57 nM.
As for B5, the Kd is 12.6 nM.
In turn, B6 gave a Kd of 25.5 nM.
Consider B7, for which the Kd stood at 19.1 nM.
B8 gave a Kd of 91.5 nM.
The value for B9 was 61.6 nM; that for B10 was 20.3 nM; that for B11 was 49.8 nM.
In the case of B12, the Kd is 34.1 nM.
Take B13: the dissociation constant (Kd) amounted to 16 nM.
The value for B14 was 12 nM.
The value for B15 was 14.3 nM.
The value for B16 was 21.6 nM.
